The test system of data set [1] is MS2 coat protein. In words: apparent KD of MS2 coat protein, switch OFF state (with FMN for OFF switches, without FMN for ON switches); designed switch direction (-1 OFF switch, 1 ON switch): 1; higher = weaker reporter binding. Conditions: FMN input: 0 or 200 uM; Eterna round: R93 (includes R88 designs). Summed up:
(§1)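 On-chip transcription from Illumina sequencing clusters produced the designed RNA switches. These were titrated with SNAP-549-labelled MS2 coat protein (twofold steps, 0.7 or 1.5 nM to 3 µM) in 100 mM Tris-HCl pH 7.5, 80 mM KCl, 4 mM MgCl2, with or without constant ligand. The apparent KD given is the per-design median of normalised cluster binding-curve fits.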

Data set [2] concerns MS2 coat protein. In words: apparent KD of MS2 coat protein, switch ON state; designed switch direction (-1 OFF switch, 1 ON switch): 1; higher = weaker reporter binding. The following applies: FMN input: 0 or 200 uM; Eterna round: R93 (includes R88 designs). The method, boiled down:
as §1

Consider “GCUCCAGCUAGCAAGGAUAUGUAGGAUGCUACAUGAGGAUCACCCAUGUGCUGAAAUAAGUCCCGGCAGAAGGUGUGACUGGAGA [Laedtear]”, for which the results for the “apparent KD of MS2 coat protein” value in data set [1] and in data set [2] were 0.0269 µM and 0.0168 µM, respectively.

In the case of “UAACAGCACAGGUAGGAUAUGUAGGGUGGUACAUGAGGAUCACCCAUGUAUCCACCCUUCGAAAGGCAGAAGGGCCUGUCGCUAC [Velabibe]”, the “apparent KD of MS2 coat protein” value in data set [1] was determined as 0.0204 µM; in data set [2], 0.0146 µM.

Consider “AACAAUCUAUCUGAGGAUAUCAAGUCAAAGACAUGAGGAUCACCCAUGUGCAGGAAAACUGCAUUUGAGAAGGCAGAUAGAUUGA [SS2: 1108]”, for which the entries for the “apparent KD of MS2 coat protein” value in data set [1] and in data set [2] were 0.0121 µM and 0.0103 µM, respectively.

“AAAAAACAUGAGGAUCACCCAUGUAAAAAAAUGGGAGGAUAUCUGAAUUAAUUAAAUUAAGGAGAAGGCCUAAAAA [71%, Same state of confusion2, 4]”: the “apparent KD of MS2 coat protein” value was 0.425 µM in data set [1] and 0.026 µM in data set [2].

As to “AAGAGACAUGAGGAUCACCCAUGUAGGAUUAUGGGAGGAUAUACAAAGACGAGAGUCAGAGUAGAAGGCCUAGGAC [salish99-ss1-132(!)]”, the “apparent KD of MS2 coat protein” value in data set [1] worked out at 0.0538 µM; in data set [2], 0.0193 µM.

On to “UCCUUACAUGAGGAUCACCCAUGUCGCAGGAAUCAAGGAUAUGGGACCGCAAUGCGGAAACCAGAAGGUGACAAAA [Zaesor]”, for which the “apparent KD of MS2 coat protein” value in data set [1] turned out to be 0.322 µM; in data set [2], 0.158 µM.

For the sequence “GAAAUAAAAAGACAGGAUAUCCAAAAGAAAACAUGAGGAUCACCCAUGUAAAGAAAAUAAAAAUGGGAGAAGGGUCAAAUAAAAG [Mat - Same State 2 - JL mod - D54]”, the “apparent KD of MS2 coat protein” value in data set [1] was 0.0328 µM; in data set [2] it was 0.024 µM.

On to “GGGAGACAUGAGGAUCACCCAUGUGAGAAGAGGCGAGGAUAUCGAAAGAAAGAAGAGAAACGAGAAGGCGCGAGCU [salish99-SS1-056]”, for which the results for the “apparent KD of MS2 coat protein” value in data set [1] and in data set [2] were 0.062 µM and 0.0281 µM, respectively.

With “AAAAGACAUGAGGAUCACCCAUGUCAAAACGUAGGAGGAUAUGUCGUGAAAAAAGACUUGACAGAAGGCCUGUGUC [SS1 - 36]”, the “apparent KD of MS2 coat protein” value in data set [1] came out at 0.0171 µM; in data set [2], 0.0158 µM.

In the case of “AGAUCUAGAAGGUAGGAUAUGUGAAAAAAAACAUGAGGAUCACCCAUGUGAUGAAUAAAAAGAAAAUAGAAGGACCAUCUAGAUC [Cross swing 1]”, the entries for the “apparent KD of MS2 coat protein” value in data set [1] and in data set [2] were 0.059 µM and 0.016 µM, respectively.

In the case of “AUUAAAUAUAGUUAGGAUAUAAUAUGUAAGACAUGAGGAUCACCCAUGUCCUAAGAAUAGUUAAAUUAGAAGGAACAGUGAAUAU [JR_SS002_Sub420]”, the “apparent KD of MS2 coat protein” value in data set [1] came to 0.0245 µM; in data set [2], 0.0241 µM.

In the case of “AAUAUACAUGAGGAUCACCCAUGUAUUAAUAGCUGAGGAUAUACGGGUGAAAAUAGCAUAGUAGAAGGCGGGUGUA [SameState1 Malc#10]”, the “apparent KD of MS2 coat protein” value in data set [1] worked out at 0.144 µM; in data set [2], 0.107 µM.

As to “AGAAAACAUGAGGAUCACCCAUGUAGAAACAUGGGAGGAUAUACAAAGACGAAAGUCAAAGUAGAAGGCCUAAAAA [Mat - Same State 1 - Mod - D163]”, the “apparent KD of MS2 coat protein” value in data set [1] amounted to 0.14 µM; in data set [2], 0.0757 µM.

On to “UAAUAAUAAACCAAGGAUAUGGAGUAAAGAACAUGAGGAUCACCCAUGUGUAGCGUGGAAUAGUACCAGAAGGUGGAGUGAAAUG [JR_SS002_Sub1003]”, for which the “apparent KD of MS2 coat protein” value in data set [1] was 0.0523 µM; in data set [2], 0.0541 µM.

As to “GGGAGACAUGAGGAUCACCCAUGUGAGAAGAGGCGAGGAUAUCGAAAGAAAGAAGAGAAACGAGAAGGCGCGAGGA [salish99-SS1-051]”, the “apparent KD of MS2 coat protein” value stood at 0.0447 µM in data set [1] and 0.0377 µM in data set [2].

In the case of “AGAAAUAAAGGAGAGGAUAUUCAAAAAGGGACAUGAGGAUCACCCAUGUAAAAGAAAAUAAAAUGGGAGAAGGCUCUAAAUAAAG [80%, More Helter Skelter 2]”, the entries for the “apparent KD of MS2 coat protein” value in data set [1] and in data set [2] were 0.0472 µM and 0.0496 µM, respectively.

Regarding “GGGAGGAAGAGAGAGGAUAUCCAAAGGAAAACAUGAGGAUCACCCAUGUAAAAGGUAGGAAAUUGGGAGAAGGCUCAAAAGAAGG [salish99-ss2-045]”, the figures for the “apparent KD of MS2 coat protein” value in data set [1] and in data set [2] were 0.0365 µM and 0.0276 µM, respectively.

With “AACUAACAUGAGGAUCACCCAUGUAUUCAAACAUGAGGAUAUAUAACACAUCAUCAACAGAUAGAAGGCAUAAAUA [JR_SS001_Sub1204]”, the “apparent KD of MS2 coat protein” value was 0.0823 µM in data set [1] and 0.093 µM in data set [2].

As to “AUAUAUAUAAGGUAGGAUAUCCAAAAAUAAACAUGAGGAUCACCCAUGUCCAUAAAGAAUAAAUGGGAGAAGGACCAUAUAUAUA [viburnum 9]”, the “apparent KD of MS2 coat protein” value in data set [1] turned out to be 0.0486 µM; in data set [2] it was 0.0285 µM.

On to “AUAAAACAUGAGGAUCACCCAUGUAGAAAUAAGGGAGGAUAUACAAAGACGAAAGUCAAAGUAGAAGGCUCAAAAG [76%, Meechl 5]”, for which the figures for the “apparent KD of MS2 coat protein” value in data set [1] and in data set [2] were 0.0243 µM and 0.0168 µM, respectively.

In the case of “ACUAUACAUGAGGAUCACCCAUGUUAGGUGGGACUAGGAUAUCAAAAGCCAGAGUAAGAAUGAGAAGGAGUAGAAA [JR_SS001_Sub301]”, the figures for the “apparent KD of MS2 coat protein” value in data set [1] and in data set [2] were 0.0348 µM and 0.0328 µM, respectively.

With “AAAGACAUAGUUCAGGAUAUGGUAAUAGUCACAUGAGGAUCACCCAUGUGCAUUUAUAUGCGCGAUCAGAAGGGAGGUAGAUAAA [SameState2 Malc#17]”, the results for the “apparent KD of MS2 coat protein” value in data set [1] and in data set [2] were 0.0215 µM and 0.0249 µM, respectively.

Turning to “CGAAGACAUGAGGAUCACCCAUGUCGUCGUAACAGAGGAUAUGGGAGCGCCAAGGGCGCAUCAGAAGGCUGAAAAC [Beusle]”, the “apparent KD of MS2 coat protein” value was found to be 0.0251 µM in data set [1] and 0.0178 µM in data set [2].

For the sequence “AAGACACAUGAGGAUCACCCAUGUCAAGAGAGACGAGGAUAUCUGAAUUAAUUAAAUUAAGGAGAAGGCGUGAAAA [Same State of Confusion2]”, the figures for the “apparent KD of MS2 coat protein” value in data set [1] and in data set [2] were 0.0581 µM and 0.0231 µM, respectively.

For “AACAAUCUAUCUGAGGAUAUGUGUCGAAAGACAUGAGGAUCACCCAUGUAAAAACAUGGAAAAUCACAGAAGGCAGAUAGAUUGA [SS2: 1145]”, the “apparent KD of MS2 coat protein” value was 1.79 µM in data set [1] and 0.127 µM in data set [2].

On to “AGAAAACAUGAGGAUCACCCAUGUAGAAAUAUGGGAGGAUAUACAAAGACGAAAGUCAAAGUAGAAGGCCUAAAAG [Mat - Same State 1 - Eli mod - 35]”, for which the “apparent KD of MS2 coat protein” value in data set [1] came out at 0.0783 µM; in data set [2], 0.0232 µM.

“AAAACACAUGAGGAUCACCCAUGUAGAAAUACGGGAGGAUAUGCAAAAACGAAAGACAAAGUAGAAGGCCUAAAAG [saturn 9]”: the figures for the “apparent KD of MS2 coat protein” value in data set [1] and in data set [2] were 0.067 µM and 0.0262 µM, respectively.

As for “CAGGACCUAGGAUAGGAUAUAUGAAUAAUUACAUGAGGAUCACCCAUGUCCAUUUAUAUGGGAACAUAGAAGGGUUGUGGUUAUG [Mat - Same state - Malcolm Mod - D133]”, the “apparent KD of MS2 coat protein” value in data set [1] turned out to be 0.118 µM; in data set [2], 0.179 µM.

With “AGAAAACAUGAGGAUCACCCAUGUAGAAAUAUGGGAGGAUAUACGAAGACGAAAGUCAAAGUAGAAGGCCUAAGAA [Mat - Same State 1 - Eli mod - D108]”, the “apparent KD of MS2 coat protein” value came to 0.0517 µM in data set [1] and 0.0188 µM in data set [2].

“GAAAAACAUGAGGAUCACCCAUGUAGAAAUAUGGGAGGAUAUACAAAGACGAAAGUCAAGGUAGAAGGCCUAAAAG [Mat - Same State 1 - Eli mod - 25]”: the “apparent KD of MS2 coat protein” value in data set [1] was found to be 0.0788 µM; in data set [2], 0.0375 µM.

In the case of “AGAAAUAAAACGAAGGAUAUCCAAAAUAAAACAUGAGGAUCACCCAUGUAAAAGAAAAUAAAGUGGGAGAAGGUCGAAAAUAAGA [Designing denovo 15]”, the results for the “apparent KD of MS2 coat protein” value in data set [1] and in data set [2] were 0.0544 µM and 0.012 µM, respectively.

In the case of “AUAAAAGAAGCGAAGGAUAUCCAAAACCUAACAUGAGGAUCACCCAUGUAAAGAAAGAAAAAAUGGGAGAAGGUCGCAAAGAAUA [73%, More Fisker Same State 2, D3, 9]”, the figures for the “apparent KD of MS2 coat protein” value in data set [1] and in data set [2] were 0.0227 µM and 0.0119 µM, respectively.

With “AAAUAUAAAGACUAGGAUAUACUAAAAUAAACAUGAGGAUCACCCAUGUAAAAAAUAAAACUCAUGUAGAAGGAGUAAAUAUAAA [ss2 10th]”, the entries for the “apparent KD of MS2 coat protein” value in data set [1] and in data set [2] were 0.0155 µM and 0.0135 µM, respectively.

For “AAGGCACAUGAGGAUCACCCAUGUUAGCCGCGACGAGGAUAUGGGAACGCGUCAGCGGAAUUAGAAGGUGUGGUGA [Qusoquan]”, the entries for the “apparent KD of MS2 coat protein” value in data set [1] and in data set [2] were 0.0378 µM and 0.0356 µM, respectively.

On to “ACAAACAAAAAAGAGGAUAUCCUAAACAAAACAUGAGGAUCACCCAUGUAAAAAAAAAUAAAAUGGGAGAAGGCUUACAACAAAC [SS2 M 23]”, for which the results for the “apparent KD of MS2 coat protein” value in data set [1] and in data set [2] were 0.0517 µM and 0.068 µM, respectively.

As for “AUAUAUAUAAGACAGGAUAUCCUAAAGUAAACAUGAGGAUCACCCAUGUAAAGAAAGAAACUCAUGGAGAAGGGUCAAUAUAUAU [Mat - Same State 2 - Tesla mod - D81]”, the “apparent KD of MS2 coat protein” value was found to be 0.0486 µM in data set [1] and 0.0141 µM in data set [2].

Take “AAUAUAUUAAGUGAGGAUAUCGAGGAAAAAACAUGAGGAUCACCCAUGUGGGAAACAUGGUCGGGUGAGAAGGCACUUAAUAUAU [Samwise Clockwise 25 - Jieux - Same State 2]”: the “apparent KD of MS2 coat protein” value was determined as 0.326 µM in data set [1] and 0.125 µM in data set [2].

On to “AUAAAACAUGAGGAUCACCCAUGUAAAAAUAUGGAAGGAUAUACGUAGUAAAAUAAAUACGUAGAAGGUCCAAAAA [SS! MT 21]”, for which the “apparent KD of MS2 coat protein” value in data set [1] worked out at 0.0197 µM; in data set [2] it was 0.015 µM.
